Source: patent US20250277032A1

Legend:
[1] = molecular target: human ILT3 on the cell surface (recombinant human ILT3 exogenously overexpressed on HEK cells; ILT3 on THP-1 cells, DCs, macrophages) (human) (UniProt Q8NHJ6); test: flow cytometry on HEK cells overexpressing recombinant human ILT3
[2] = molecular target: human ILT3 on the cell surface (recombinant human ILT3 exogenously overexpressed on HEK cells; ILT3 on THP-1 cells, DCs, macrophages) (human) (UniProt Q8NHJ6); test: cell-based or functional assay

Chain of fibronectin (FN1), P02751 32-2477 (ligand) (P02751 32-2477 limits assumed): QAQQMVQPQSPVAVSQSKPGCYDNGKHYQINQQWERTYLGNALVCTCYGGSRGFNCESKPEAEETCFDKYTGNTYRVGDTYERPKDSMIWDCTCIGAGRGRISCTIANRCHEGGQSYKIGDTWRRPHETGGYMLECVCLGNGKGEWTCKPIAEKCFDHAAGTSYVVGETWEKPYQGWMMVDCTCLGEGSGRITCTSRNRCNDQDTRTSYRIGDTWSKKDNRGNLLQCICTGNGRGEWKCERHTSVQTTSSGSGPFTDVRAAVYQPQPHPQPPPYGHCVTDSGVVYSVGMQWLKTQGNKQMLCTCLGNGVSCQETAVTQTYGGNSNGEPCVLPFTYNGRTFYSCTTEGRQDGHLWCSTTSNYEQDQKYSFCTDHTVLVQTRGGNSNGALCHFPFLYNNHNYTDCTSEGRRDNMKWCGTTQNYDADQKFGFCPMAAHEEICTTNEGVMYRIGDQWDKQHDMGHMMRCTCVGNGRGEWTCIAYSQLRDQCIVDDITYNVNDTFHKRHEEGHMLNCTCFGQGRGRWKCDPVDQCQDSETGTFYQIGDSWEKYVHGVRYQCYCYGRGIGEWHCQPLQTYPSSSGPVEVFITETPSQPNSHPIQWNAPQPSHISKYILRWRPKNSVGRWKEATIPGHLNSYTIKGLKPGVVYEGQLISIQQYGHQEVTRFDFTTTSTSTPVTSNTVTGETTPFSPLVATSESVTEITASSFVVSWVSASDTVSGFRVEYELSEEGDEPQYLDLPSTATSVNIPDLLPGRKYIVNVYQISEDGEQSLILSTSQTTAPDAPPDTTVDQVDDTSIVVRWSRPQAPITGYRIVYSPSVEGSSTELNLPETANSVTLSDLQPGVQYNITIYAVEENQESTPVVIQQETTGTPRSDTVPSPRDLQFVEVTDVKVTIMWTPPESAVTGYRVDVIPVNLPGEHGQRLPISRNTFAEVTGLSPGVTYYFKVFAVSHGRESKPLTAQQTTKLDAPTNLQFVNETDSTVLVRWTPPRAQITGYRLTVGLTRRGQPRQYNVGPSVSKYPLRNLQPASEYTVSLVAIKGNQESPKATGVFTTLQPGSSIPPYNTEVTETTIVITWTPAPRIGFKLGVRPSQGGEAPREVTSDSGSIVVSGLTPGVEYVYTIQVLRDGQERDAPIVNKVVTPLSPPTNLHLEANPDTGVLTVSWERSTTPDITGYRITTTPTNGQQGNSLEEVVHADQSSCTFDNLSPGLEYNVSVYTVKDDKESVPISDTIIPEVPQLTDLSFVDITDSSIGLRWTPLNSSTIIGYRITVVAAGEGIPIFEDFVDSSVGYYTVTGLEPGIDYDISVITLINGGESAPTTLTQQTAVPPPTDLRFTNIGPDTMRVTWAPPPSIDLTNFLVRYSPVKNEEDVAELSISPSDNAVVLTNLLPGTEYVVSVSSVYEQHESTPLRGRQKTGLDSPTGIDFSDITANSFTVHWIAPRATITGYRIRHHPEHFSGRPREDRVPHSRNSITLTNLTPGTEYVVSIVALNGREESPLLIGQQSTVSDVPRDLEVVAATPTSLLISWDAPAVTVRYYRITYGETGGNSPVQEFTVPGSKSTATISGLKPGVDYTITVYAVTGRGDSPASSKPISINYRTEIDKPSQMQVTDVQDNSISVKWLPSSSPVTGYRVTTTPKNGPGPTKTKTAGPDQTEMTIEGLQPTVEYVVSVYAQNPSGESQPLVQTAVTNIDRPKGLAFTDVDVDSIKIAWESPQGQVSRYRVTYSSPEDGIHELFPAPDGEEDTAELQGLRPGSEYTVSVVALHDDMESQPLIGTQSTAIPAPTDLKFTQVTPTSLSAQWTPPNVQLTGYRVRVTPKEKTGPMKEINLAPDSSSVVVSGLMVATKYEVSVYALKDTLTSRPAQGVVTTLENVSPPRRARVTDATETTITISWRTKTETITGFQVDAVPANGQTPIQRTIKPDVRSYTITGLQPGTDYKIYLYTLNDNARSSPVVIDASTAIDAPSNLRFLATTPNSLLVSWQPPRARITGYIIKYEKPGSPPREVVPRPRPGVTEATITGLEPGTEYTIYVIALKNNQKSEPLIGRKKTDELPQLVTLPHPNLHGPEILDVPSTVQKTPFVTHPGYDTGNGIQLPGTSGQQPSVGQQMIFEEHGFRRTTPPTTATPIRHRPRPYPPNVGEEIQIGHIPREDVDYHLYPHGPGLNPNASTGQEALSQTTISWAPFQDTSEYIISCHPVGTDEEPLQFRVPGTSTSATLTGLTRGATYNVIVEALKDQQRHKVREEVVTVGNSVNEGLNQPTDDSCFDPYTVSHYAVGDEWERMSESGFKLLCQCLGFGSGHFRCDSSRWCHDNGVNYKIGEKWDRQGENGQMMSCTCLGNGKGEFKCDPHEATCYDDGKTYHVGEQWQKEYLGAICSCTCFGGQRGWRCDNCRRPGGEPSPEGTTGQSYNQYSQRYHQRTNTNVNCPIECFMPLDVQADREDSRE

average fluorescence [1]	decrease in IL-8 secretion from THP-1 cells activated with immobilized Rituximab [2] [%]	Substance
118		ZM4.1 (commercial anti-ILT3 antibody)
	67	fibronectin (FN1), P02751 32-2477 (ligand)
